# T1: CpCdc13AB heterodimer: His6-SUMO-Cdc13A + GST-Cdc13B-FLAG (Candida parapsilosis, UniProt G8B7U9;G8B5A5 1-456;1-475)
# T1 sequence 1: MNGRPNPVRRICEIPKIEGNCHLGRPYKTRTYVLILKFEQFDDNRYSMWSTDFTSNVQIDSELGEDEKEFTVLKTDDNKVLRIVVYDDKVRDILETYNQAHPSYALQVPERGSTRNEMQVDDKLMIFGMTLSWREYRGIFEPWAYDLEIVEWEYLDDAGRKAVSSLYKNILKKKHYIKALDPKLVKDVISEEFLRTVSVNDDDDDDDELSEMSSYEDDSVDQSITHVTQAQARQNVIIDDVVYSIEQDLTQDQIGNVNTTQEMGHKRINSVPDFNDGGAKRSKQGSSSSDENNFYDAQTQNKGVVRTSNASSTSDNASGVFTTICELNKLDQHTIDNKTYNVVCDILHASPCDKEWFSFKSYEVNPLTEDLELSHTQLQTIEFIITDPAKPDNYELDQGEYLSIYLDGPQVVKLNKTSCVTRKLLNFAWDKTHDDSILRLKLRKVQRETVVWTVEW
# T1 sequence 2: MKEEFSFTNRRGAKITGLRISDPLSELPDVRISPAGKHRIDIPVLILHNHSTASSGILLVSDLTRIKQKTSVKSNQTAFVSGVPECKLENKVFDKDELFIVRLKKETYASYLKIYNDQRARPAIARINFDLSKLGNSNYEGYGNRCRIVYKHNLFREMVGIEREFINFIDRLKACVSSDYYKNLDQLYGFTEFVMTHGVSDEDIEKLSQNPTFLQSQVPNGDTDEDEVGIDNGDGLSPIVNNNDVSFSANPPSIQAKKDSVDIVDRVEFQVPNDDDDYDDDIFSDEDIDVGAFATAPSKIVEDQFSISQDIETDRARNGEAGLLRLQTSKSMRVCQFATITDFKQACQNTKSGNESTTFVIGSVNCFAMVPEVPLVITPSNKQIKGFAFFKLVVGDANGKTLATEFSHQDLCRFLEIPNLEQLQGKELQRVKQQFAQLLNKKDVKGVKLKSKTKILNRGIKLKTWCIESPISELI
# Columns and labels:
# [1] = molecular target: CpCdc13AB-DBD complex (Candida parapsilosis) (UniProt G8B7U9+G8B5A5); assay: EMSA; settings: stated as full-length Kd (~10 nM) at least 100-fold lower; weak shift detected; EMSA: 50 mM Tris-HCl pH 7.5, 2 mM MgCl2, 10 mM NaCl, 1 mM spermidine, 1 mM DTT, 200 ng/ul poly(dI-dC), 5% glycerol, 25 C 60 min; crosslinking: same buffer …
# [2] = molecular target: T1, CpCdc13AB heterodimer: His6-SUMO-Cdc13A …; assay: competition; no effect; EMSA: 50 mM Tris-HCl pH 7.5, 2 mM MgCl2, 10 mM NaCl, 1 mM spermidine, 1 mM DTT, 200 ng/ul poly(dI-dC), 5% glycerol, 25 C 60 min; crosslinking: same buffer, 22 C 1 h, then UV on ice 20 min; settings: protein: recombinant; tags: His6-SUMO (A); GST and FLAG (B); copies: 1;1
# [3] = molecular target: T1, CpCdc13AB heterodimer: His6-SUMO-Cdc13A …; assay: UV photo-crosslinking; mostly Cdc13B adducts; EMSA: 50 mM Tris-HCl pH 7.5, 2 mM MgCl2, 10 mM NaCl, 1 mM spermidine, 1 mM DTT, 200 ng/ul poly(dI-dC), 5% glycerol, 25 C 60 min; crosslinking: same buffer, 22 C 1 h, then UV on ice 20 min; settings: protein: recombinant; tags: His6-SUMO (A); GST and FLAG (B); copies: 1;1; label: 32P
# [4] = molecular target: T1, CpCdc13AB heterodimer: His6-SUMO-Cdc13A …; assay: competition; vs CpG2 probe; EMSA: 50 mM Tris-HCl pH 7.5, 2 mM MgCl2, 10 mM NaCl, 1 mM spermidine, 1 mM DTT, 200 ng/ul poly(dI-dC), 5% glycerol, 25 C 60 min; crosslinking: same buffer, 22 C 1 h, then UV on ice 20 min; settings: protein: recombinant; tags: His6-SUMO (A); GST and FLAG (B); copies: 1;1
# [5] = molecular target: T1, CpCdc13AB heterodimer: His6-SUMO-Cdc13A …; assay: competition; affinity unaffected; EMSA: 50 mM Tris-HCl pH 7.5, 2 mM MgCl2, 10 mM NaCl, 1 mM spermidine, 1 mM DTT, 200 ng/ul poly(dI-dC), 5% glycerol, 25 C 60 min; crosslinking: same buffer, 22 C 1 h, then UV on ice 20 min; settings: protein: recombinant; tags: His6-SUMO (A); GST and FLAG (B); copies: 1;1
# [6] = molecular target: T1, CpCdc13AB heterodimer: His6-SUMO-Cdc13A …; assay: competition; vs CpG2 probe; EMSA: 50 mM Tris-HCl pH 7.5, 2 mM MgCl2, 10 mM NaCl, 1 mM spermidine, 1 mM DTT, 200 ng/ul poly(dI-dC), 5% glycerol, 25 C 60 min; crosslinking: same buffer, 22 C 1 h, then UV on ice 20 min; settings: protein: recombinant; tags: His6-SUMO (A); GST and FLAG (B); copies: 1;1; remark: listed apart in the source
# [7] = molecular target: T1, CpCdc13AB heterodimer: His6-SUMO-Cdc13A …; assay: EMSA; EMSA: 50 mM Tris-HCl pH 7.5, 2 mM MgCl2, 10 mM NaCl, 1 mM spermidine, 1 mM DTT, 200 ng/ul poly(dI-dC), 5% glycerol, 25 C 60 min; crosslinking: same buffer, 22 C 1 h, then UV on ice 20 min; settings: protein: recombinant; tags: His6-SUMO (A); GST and FLAG (B); copies: 1;1
# [8] = molecular target: T1, CpCdc13AB heterodimer: His6-SUMO-Cdc13A …; assay: UV photo-crosslinking; Cdc13A adducts; EMSA: 50 mM Tris-HCl pH 7.5, 2 mM MgCl2, 10 mM NaCl, 1 mM spermidine, 1 mM DTT, 200 ng/ul poly(dI-dC), 5% glycerol, 25 C 60 min; crosslinking: same buffer, 22 C 1 h, then UV on ice 20 min; settings: protein: recombinant; tags: His6-SUMO (A); GST and FLAG (B); copies: 1;1; label: 32P
# [9] = molecular target: T1, CpCdc13AB heterodimer: His6-SUMO-Cdc13A …; assay: competition; inactive as competitor; EMSA: 50 mM Tris-HCl pH 7.5, 2 mM MgCl2, 10 mM NaCl, 1 mM spermidine, 1 mM DTT, 200 ng/ul poly(dI-dC), 5% glycerol, 25 C 60 min; crosslinking: same buffer, 22 C 1 h, then UV on ice 20 min; settings: protein: recombinant; tags: His6-SUMO (A); GST and FLAG (B); copies: 1;1
# [10] = molecular target: T1, CpCdc13AB heterodimer: His6-SUMO-Cdc13A …; assay: EMSA; apparent Kd; EMSA: 50 mM Tris-HCl pH 7.5, 2 mM MgCl2, 10 mM NaCl, 1 mM spermidine, 1 mM DTT, 200 ng/ul poly(dI-dC), 5% glycerol, 25 C 60 min; crosslinking: same buffer, 22 C 1 h, then UV on ice 20 min; settings: protein: recombinant; tags: His6-SUMO (A); GST and FLAG (B); copies: 1;1
# [11] = molecular target: T1, CpCdc13AB heterodimer: His6-SUMO-Cdc13A …; assay: UV photo-crosslinking; lower product level than IO-1 and IO-3; EMSA: 50 mM Tris-HCl pH 7.5, 2 mM MgCl2, 10 mM NaCl, 1 mM spermidine, 1 mM DTT, 200 ng/ul poly(dI-dC), 5% glycerol, 25 C 60 min; crosslinking: same buffer, 22 C 1 h, then UV on ice 20 min; settings: protein: recombinant; tags: His6-SUMO (A); GST and FLAG (B); copies: 1;1; label: 32P
# [12] = molecular target: T1, CpCdc13AB heterodimer: His6-SUMO-Cdc13A …; assay: competition; no effect of truncation; EMSA: 50 mM Tris-HCl pH 7.5, 2 mM MgCl2, 10 mM NaCl, 1 mM spermidine, 1 mM DTT, 200 ng/ul poly(dI-dC), 5% glycerol, 25 C 60 min; crosslinking: same buffer, 22 C 1 h, then UV on ice 20 min; settings: protein: recombinant; tags: His6-SUMO (A); GST and FLAG (B); copies: 1;1
molecule,measurement,setting,value
ATTATACTGAGGTCCGGATGTTG [CpG1],Kd,[1],> 1 µM
ATTACATTGAGGTCCGGATGTTG (ssDNA) [CpG1-Ct2],binding result,[2],binds
"ATTATACTGAGGTCCGGATGTTG (ssDNA, 5-iodo-dU at T8 of CpG1) [IO-1]",binding result,[3],binds
CTGATGTTCTTTAGGGAGGTACTGATGTTCTTTAGGGAGGTA (ssDNA) [ClG2],binding signal,[4],~20 fold higher concentration for 50% inhibition
ATTATACTGAGGTCCGGATGTCA (ssDNA) [CpG1-Ct4],binding result,[5],binds
GTGGGTGTGTGGGTGTGTGGGTGTGTGGGTGTGT (ssDNA) [ScTG34],binding result,[6],no binding
CCGGATGTTGATTATACTGAGGT (ssDNA) [CpG1b],binding result,[6],no binding
CGATTACTGAGGTCCGGATGTTG (ssDNA) [CpG1-Ct1],binding result,[5],binds
GATCATTGGTGTACGGATGTCACGATCATTGGTGTACGGATGTCAC (ssDNA) [CtG2],binding result,[6],no binding
ATTATACTGAGGTCCGGATGTTG (ssDNA) [CpG1],Kd,[7],~0.01 µM
"ATTATACTGAGGTCCGGATGTTG (ssDNA, 5-iodo-dU at T19 of CpG1) [IO-3]",binding result,[8],binds
ATTATACTGAGGTCCGGAT (ssDNA) [CpG1-Δ4],binding result,[9],no binding
ATTATACTGAGGTCCGGATGTTGATTATACTGAGGTCCGGATGTTG (ssDNA) [CpG2],Kd,[10],~0.00707 µM
"ATTATACTGAGGTCCGGATGTTG (ssDNA, 5-iodo-dU at T13 of CpG1) [IO-2]",binding result,[11],binds
TACTGAGGTCCGGATGTTG (ssDNA) [CpG1-Δ1],binding result,[12],binds

# From publication PMC4344524, “Combinatorial recognition of a complex telomere repeat sequence by the Candida parapsilosis Cdc13AB heterodimer”
